Values quoted from earlier work in article PMC9796269 (British Journal of Clinical Pharmacology, 2022).

## CNP‐22: endogenous C‐type natriuretic peptide form, susceptible to Neprilysin degradation
  calculated half‐life (clearance in human plasma): 2.6 min
